Measurements published in publication PMC5430869, “Structure-function analysis of the DNA-binding domain of a transmembrane transcriptional activator”.
Residue numbers refer to the chain shown, from its start.

Tests used:
Details in all cases: protein: recombinant; tags: His6-thioredoxin removed by TEV; blunt
CadC1-159 WT [1] = target: T1, CadC1-159 WT (Escherichia coli, UniProt P23890 1-159); experiment: SPR; steady state; construct called CadC DBD in legend, CadC1-159 in Methods; EMSA/NMR/ITC: 20 mM BisTris, 150 mM NaCl, pH 6.5, RT (NMR 10% D2O, 298 K; imino spectra 283 K); SPR: 10 mM HEPES pH 7.4, 150 mM NaCl, 3 mM EDTA, 0.05% P20, 25 C
T1 sequence: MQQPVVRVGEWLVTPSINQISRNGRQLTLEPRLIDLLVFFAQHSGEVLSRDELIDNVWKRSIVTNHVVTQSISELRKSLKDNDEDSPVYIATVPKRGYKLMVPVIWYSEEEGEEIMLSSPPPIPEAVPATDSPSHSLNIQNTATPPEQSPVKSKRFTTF

CadC1-107 (DBD) [2] = target: T2, CadC1-107 (DBD) (Escherichia coli, UniProt P23890 1-107); experiment: NMR; smaller imino CSPs, line broadening; EMSA/NMR/ITC: 20 mM BisTris, 150 mM NaCl, pH 6.5, RT (NMR 10% D2O, 298 K; imino spectra 283 K); SPR: 10 mM HEPES pH 7.4, 150 mM NaCl, 3 mM EDTA, 0.05% P20, 25 C
T2 sequence: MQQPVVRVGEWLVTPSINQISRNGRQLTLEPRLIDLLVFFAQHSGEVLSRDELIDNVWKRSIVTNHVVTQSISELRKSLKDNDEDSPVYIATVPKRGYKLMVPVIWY

CadC1-107 (DBD) [3] = target: T2, CadC1-107 (DBD); experiment: EMSA; identical to 41-mer; value only in figure; EMSA/NMR/ITC: 20 mM BisTris, 150 mM NaCl, pH 6.5, RT (NMR 10% D2O, 298 K; imino spectra 283 K); SPR: 10 mM HEPES pH 7.4, 150 mM NaCl, 3 mM EDTA, 0.05% P20, 25 C
CadC1-159 WT [4] = target: T1, CadC1-159 WT; experiment: SPR; steady state; EMSA/NMR/ITC: 20 mM BisTris, 150 mM NaCl, pH 6.5, RT (NMR 10% D2O, 298 K; imino spectra 283 K); SPR: 10 mM HEPES pH 7.4, 150 mM NaCl, 3 mM EDTA, 0.05% P20, 25 C
CadC1-159 E30R = target: T3, CadC1-159 E30R (Escherichia coli, UniProt P23890 1-159, E30R); experiment: SPR; almost 30-fold; EMSA/NMR/ITC: 20 mM BisTris, 150 mM NaCl, pH 6.5, RT (NMR 10% D2O, 298 K; imino spectra 283 K); SPR: 10 mM HEPES pH 7.4, 150 mM NaCl, 3 mM EDTA, 0.05% P20, 25 C
T3 sequence: T1 sequence with E30R

CadC1-107 (DBD) [5] = target: T2, CadC1-107 (DBD); experiment: NMR; EMSA/NMR/ITC: 20 mM BisTris, 150 mM NaCl, pH 6.5, RT (NMR 10% D2O, 298 K; imino spectra 283 K); SPR: 10 mM HEPES pH 7.4, 150 mM NaCl, 3 mM EDTA, 0.05% P20, 25 C
CadC1-107 (DBD) [6] = target: T2, CadC1-107 (DBD); experiment: NMR titration; 1:1 model; EMSA/NMR/ITC: 20 mM BisTris, 150 mM NaCl, pH 6.5, RT (NMR 10% D2O, 298 K; imino spectra 283 K); SPR: 10 mM HEPES pH 7.4, 150 mM NaCl, 3 mM EDTA, 0.05% P20, 25 C

B1: Cad1 17-mer, biotinylated (SPR) (dsDNA)
DNA 1: TAAACATTAAATGTTTA
DNA 2: TAAACATTTAATGTTTA
Kd (CadC1-159 WT [1]): 23 µM

B2: Cad1C 13-mer (dsDNA)
DNA 1: TGATATCAACTTG
DNA 2: CAAGTTGATATCA
binding result (CadC1-107 (DBD) [2]): binds

B3: Cad1AB 26-mer (dsDNA)
DNA 1: GTAAACATTAAATGTTTATCTTTTCA
DNA 2: TGAAAAGATAAACATTTAATGTTTAC
binding result (CadC1-107 (DBD) [3]): binds

B4: Cad1 41-mer, biotinylated (SPR) (dsDNA)
DNA 1: TTGTAAACATTAAATGTTTATCTTTTCATGATATCAACTTG
DNA 2: CAAGTTGATATCATGAAAAGATAAACATTTAATGTTTACAA
Kd (CadC1-159 WT [4]): 0.38 µM
binding signal (CadC1-159 E30R): ~30 fold increased affinity vs WT

B5: Cad1A 14-mer (dsDNA)
DNA 1: GTAAACATTAAATG
DNA 2: CATTTAATGTTTAC
binding result (CadC1-107 (DBD) [5]): binds

B6: Cad1B 13-mer (dsDNA)
DNA 1: GTTTATCTTTTCA
DNA 2: TGAAAAGATAAAC
binding result (CadC1-107 (DBD) [5]): binds

B7: Cad1 17-mer (dsDNA)
DNA 1: TAAACATTAAATGTTTA
DNA 2: TAAACATTTAATGTTTA
Kd (CadC1-107 (DBD) [6]): 67 ± 16 µM
